Legend:
Assay in all cases: cell-based or functional assay
[1] = target: HIV-1 Env of pseudovirus 1012_11_TC21_3257 (HIV-1)
[2] = target: HIV-1 Env of pseudovirus 1056_10_TA11_1826 (HIV-1)
[3] = target: HIV-1 Env of pseudovirus 211-9 (HIV-1)
[4] = target: HIV-1 Env of pseudovirus 235-47 (HIV-1)
[5] = target: HIV-1 Env of pseudovirus 3103.v3.c10 (HIV-1)
[6] = target: HIV-1 Env of pseudovirus 3365.v2.c2 (HIV-1)
[7] = target: HIV-1 Env of pseudovirus 620345.c01 (HIV-1)
[8] = target: HIV-1 Env of pseudovirus 6240_08_TA5_4622 (HIV-1)
[9] = target: HIV-1 Env of pseudovirus 6952.v1.c20 (HIV-1)
[10] = target: HIV-1 Env of pseudovirus BF1266.431a (HIV-1)
[11] = target: HIV-1 Env of pseudovirus BJOX010000.06.2 (HIV-1)
[12] = target: HIV-1 Env of pseudovirus BJOX025000.01.1 (HIV-1)
[13] = target: HIV-1 Env of pseudovirus BJOX028000.10.3 (HIV-1)
[14] = target: HIV-1 Env of pseudovirus C1080.c03 (HIV-1)
[15] = target: HIV-1 Env of pseudovirus C4118.c09 (HIV-1)
[16] = target: HIV-1 Env of pseudovirus CAAN5342.A2 (HIV-1)
[17] = target: HIV-1 Env of pseudovirus CNE20 (HIV-1)
[18] = target: HIV-1 Env of pseudovirus CNE30 (HIV-1)
[19] = target: HIV-1 Env of pseudovirus CNE5 (HIV-1)
[20] = target: HIV-1 Env of pseudovirus CNE58 (HIV-1)
[21] = target: HIV-1 Env of pseudovirus Ce2010_F5 (HIV-1)
[22] = target: HIV-1 Env of pseudovirus Du156.12 (HIV-1)
[23] = target: HIV-1 Env of pseudovirus HIV-001428-2.42 (HIV-1)
[24] = target: HIV-1 Env of pseudovirus HIV-16055-2.3 (HIV-1)
[25] = target: HIV-1 Env of pseudovirus HIV-16845-2.22 (HIV-1)
[26] = target: HIV-1 Env of pseudovirus MS208.A1 (HIV-1)
[27] = target: HIV-1 Env of pseudovirus P1981_C5_3 (HIV-1)
[28] = target: HIV-1 Env of pseudovirus PVO.4 (HIV-1)
[29] = target: HIV-1 Env of pseudovirus Q461.e2 (HIV-1)
[30] = target: HIV-1 Env of pseudovirus REJO4541.67 (HIV-1)
[31] = target: HIV-1 Env of pseudovirus SC422661.8 (HIV-1)
[32] = target: HIV-1 Env of pseudovirus T250-4 (HIV-1)
[33] = target: HIV-1 Env of pseudovirus THRO4156.18 (HIV-1)
[34] = target: HIV-1 Env of pseudovirus TRO.11 (HIV-1)
[35] = target: HIV-1 Env of pseudovirus X2088_c9 (HIV-1)
[36] = target: HIV-1 Env of pseudovirus X2131_C1_B5 (HIV-1)
[37] = target: HIV-1 Env of pseudovirus ZM197M.PB7 (HIV-1)
[38] = target: HIV-1 Env of pseudovirus ZM233M.PB6 (HIV-1)
[39] = target: HIV-1 Env of pseudovirus ZM249M.PL1 (HIV-1)

B1: 10-1074 (antibody, V domains shown)
VH: QVQLQESGPGLVKPSETLSVTCSVSGDSMNNYYWTWIRQSPGKGLEWIGYISDRESATYNPSLNSRVVISRDTSKNQLSLKLNSVTPADTAVYYCATARRGQRIYGVVSFGEFFYYYSMDVWGKGTTVTVSS
VL: SYVRPLSVALGETARISCGRQALGSRAVQWYQHRPGQAPILLIYNNQDRPSGIPERFSGTPDINFGTRATLTISGVEAGDEADYYCHMWDSRSGFSWSFGGATRLTVL
- IC50 in TZM-bl assay [1]: 0.011 µg/mL
- IC80 in TZM-bl assay [1]: 0.047 µg/mL
- IC50 in TZM-bl assay [2]: 0.038 µg/mL
- IC80 in TZM-bl assay [2]: 0.168 µg/mL
- IC50 in TZM-bl assay [3]: 0.065 µg/mL
- IC80 in TZM-bl assay [3]: 0.403 µg/mL
- IC50 in TZM-bl assay [4]: 0.058 µg/mL
- IC80 in TZM-bl assay [4]: 0.224 µg/mL
- IC50 in TZM-bl assay [5]: 0.024 µg/mL
- IC80 in TZM-bl assay [5]: 0.061 µg/mL
- IC50 in TZM-bl assay [6]: 0.057 µg/mL
- IC80 in TZM-bl assay [6]: 0.2 µg/mL
- IC50 in TZM-bl assay [7]: > 10 µg/mL
- IC80 in TZM-bl assay [7]: > 10 µg/mL
- IC50 in TZM-bl assay [8]: 0.038 µg/mL
- IC80 in TZM-bl assay [8]: 0.131 µg/mL
- IC50 in TZM-bl assay [9]: 0.023 µg/mL
- IC80 in TZM-bl assay [9]: 0.086 µg/mL
- IC50 in TZM-bl assay [10]: > 10 µg/mL
- IC80 in TZM-bl assay [10]: > 10 µg/mL
- IC50 in TZM-bl assay [11]: > 10 µg/mL
- IC80 in TZM-bl assay [11]: > 10 µg/mL
- IC50 in TZM-bl assay [12]: > 10 µg/mL
- IC80 in TZM-bl assay [12]: > 10 µg/mL
- IC50 in TZM-bl assay [13]: > 10 µg/mL
- IC80 in TZM-bl assay [13]: > 10 µg/mL
- IC50 in TZM-bl assay [14]: > 10 µg/mL
- IC80 in TZM-bl assay [14]: > 10 µg/mL
- IC50 in TZM-bl assay [15]: > 10 µg/mL
- IC80 in TZM-bl assay [15]: > 10 µg/mL
- IC50 in TZM-bl assay [16]: 0.005 µg/mL
- IC80 in TZM-bl assay [16]: 0.019 µg/mL
- IC50 in TZM-bl assay [17]: 0.002 µg/mL
- IC80 in TZM-bl assay [17]: 0.005 µg/mL
- IC50 in TZM-bl assay [18]: 0.261 µg/mL
- IC80 in TZM-bl assay [18]: 0.678 µg/mL
- IC50 in TZM-bl assay [19]: > 10 µg/mL
- IC80 in TZM-bl assay [19]: > 10 µg/mL
- IC50 in TZM-bl assay [20]: 0.165 µg/mL
- IC80 in TZM-bl assay [20]: 0.476 µg/mL
- IC50 in TZM-bl assay [21]: > 10 µg/mL
- IC80 in TZM-bl assay [21]: > 10 µg/mL
- IC50 in TZM-bl assay [22]: 0.01 µg/mL
- IC80 in TZM-bl assay [22]: 0.036 µg/mL
- IC50 in TZM-bl assay [23]: 0.035 µg/mL
- IC80 in TZM-bl assay [23]: 0.126 µg/mL
- IC50 in TZM-bl assay [24]: > 10 µg/mL
- IC80 in TZM-bl assay [24]: > 10 µg/mL
- IC50 in TZM-bl assay [25]: 0.727 µg/mL
- IC80 in TZM-bl assay [25]: 3.93 µg/mL
- IC50 in TZM-bl assay [26]: > 10 µg/mL
- IC80 in TZM-bl assay [26]: > 10 µg/mL
- IC50 in TZM-bl assay [27]: 0.004 µg/mL
- IC80 in TZM-bl assay [27]: 0.013 µg/mL
- IC50 in TZM-bl assay [28]: 0.072 µg/mL
- IC80 in TZM-bl assay [28]: 0.252 µg/mL
- IC50 in TZM-bl assay [29]: > 10 µg/mL
- IC80 in TZM-bl assay [29]: > 10 µg/mL
- IC50 in TZM-bl assay [30]: > 10 µg/mL
- IC80 in TZM-bl assay [30]: > 10 µg/mL
- IC50 in TZM-bl assay [31]: 0.058 µg/mL
- IC80 in TZM-bl assay [31]: 0.368 µg/mL
- IC50 in TZM-bl assay [32]: 0.002 µg/mL
- IC80 in TZM-bl assay [32]: 0.005 µg/mL
- IC50 in TZM-bl assay [33]: > 10 µg/mL
- IC80 in TZM-bl assay [33]: > 10 µg/mL
- IC50 in TZM-bl assay [34]: 0.011 µg/mL
- IC80 in TZM-bl assay [34]: 0.039 µg/mL
- IC50 in TZM-bl assay [35]: 0.003 µg/mL
- IC80 in TZM-bl assay [35]: 0.01 µg/mL
- IC50 in TZM-bl assay [36]: 0.014 µg/mL
- IC80 in TZM-bl assay [36]: 0.056 µg/mL
- IC50 in TZM-bl assay [37]: > 10 µg/mL
- IC80 in TZM-bl assay [37]: > 10 µg/mL
- IC50 in TZM-bl assay [38]: 0.058 µg/mL
- IC80 in TZM-bl assay [38]: 0.371 µg/mL
- IC50 in TZM-bl assay [39]: > 10 µg/mL
- IC80 in TZM-bl assay [39]: > 10 µg/mL
